Test results reported in the supplement of paper PMC10899765.

Legend:
Settings in all cases: 20 nM; 72 h
MCF10A [1] = test: percent viability (nuclei count relative to siNT); higher = more viable cells
Description: (§1)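 After 72 h, cells were fixed and stained with Hoechst and anti-fibrillarin, and nucleoli per nucleus were counted with CellProfiler. Values are plate-adjusted percent effect for the one-nucleolus and 5+ nucleoli phenotypes, normalised to siNT (0%) and to the positive controls siNOL11 or siKIF11 (100%), as the mean of biological triplicates. Percent viability is the nuclei count relative to siNT.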

MCF10A [2] = test: 5+ nucleoli phenotype percent effect (relative to siNT 0% and siKIF11 100%); higher = more cells with five or more nucleoli
Description: as §1

MCF10A [3] = test: one-nucleolus phenotype percent effect (relative to siNT 0% and siNOL11 100%); higher = more cells with one nucleolus (ribosome biogenesis inhibition)
Description: as §1

| Sequence | percent viability (MCF10A [1]) [%] | 5+ nucleoli phenotype percent effect (MCF10A [2]) [%] | one-nucleolus phenotype percent effect (MCF10A [3]) [%] |
| --- | --- | --- | --- |
| UGCCUACUGAGCUGAAACACAG [hsa-miR-24-2-5p] | 46.7 | -9.36 | 7.59 |
| CUCGCCCUGUCUCCCGCUAG [hsa-miR-6726-3p] | 126 | 66.4 | -28.4 |
| UUCCCAGCCAACGCACCA [hsa-miR-7977] | 63.8 | 20.4 | -23.2 |
| AACCCAGUGGGCUAUGGAAAUG [hsa-miR-4482-5p] | 24.6 | -41 | 59.8 |
| AGGCUCUAACUGGCUUUCCCUGCA [hsa-miR-6822-3p] | 37.9 | -24.9 | 32.4 |
| UGUGAUAUCAUGGUUCCUGGGA [hsa-miR-3689b-5p] | 23.6 | -25.9 | 19 |
| GCAGAGUGCAAACAAUUUUGAC [hsa-miR-759] | 90.2 | 51.1 | -27.2 |
| GGGGUAUUGUUUCCGCUGCCAGG [hsa-miR-503-3p] | 40.1 | -25.1 | 39 |
| UCCAUUACACUACCCUGCCUCU [hsa-miR-885-5p] | 71.4 | -8.23 | -5.62 |
| UCAGCAAACAUUUAUUGUGUGC [hsa-miR-545-3p] | 124 | 27.8 | -21.8 |
| AGAUGUAUGGAAUCUGUAUAUAUC [hsa-miR-3171] | 91.9 | 13.6 | -12.5 |
| GACACGGGCGACAGCUGCGGCCC [hsa-miR-602] | 91.9 | 45.6 | -18.7 |
| ACAGUCUGCUGAGGUUGGAGC [hsa-miR-622] | 86.2 | -4.39 | 8.72 |
| CGGCGCGACCGGCCCGGGG [hsa-miR-4634] | 71.2 | 24.7 | -14.3 |
| UAAGGGGUGUAUGGCAGAUGCA [hsa-miR-3936] | 19.2 | -17.6 | 36.7 |
| AGGCAGUGUAUUGUUAGCUGGC [hsa-miR-449b-5p] | 128 | 36.8 | -25.7 |
| UGUCAGUGACUCCUGCCCCUUGGU [hsa-miR-4697-3p] | 98.6 | 3.98 | -7.45 |
| UCUCUGGUCUUUCCUUGACAG [hsa-miR-6764-3p] | 27.5 | 17.2 | 0.623 |
| AGGGGGAUGGCAGAGCAAAAUU [hsa-miR-5010-5p] | 44.2 | -7.77 | 13.7 |
| UACUGCAUCAGGAACUGAUUGGA [hsa-miR-217] | 62.9 | 1.56 | 0.807 |
| CUUGGAUUUUCCUGGGCCUCAG [hsa-miR-5004-3p] | 51.4 | -12 | 4.88 |
| GCUACUUCACAACACCAGGGCC [hsa-miR-138-1-3p] | 112 | 30.5 | -15.7 |
| UUCAGCAGGAACAGCU [hsa-miR-4291] | 45.7 | -7.69 | -4.14 |

| Sequence | percent viability (MCF10A [1]) [%] | 5+ nucleoli phenotype percent effect (MCF10A [2]) [%] | one-nucleolus phenotype percent effect (MCF10A [3]) [%] |
| --- | --- | --- | --- |
| AAUGGCUGUCCGUAGUAUGGUC [hsa-miR-889-5p] | 24.5 | -28.6 | 43.3 |
| AUAUACCUGUUCGGUCUCUUUA [hsa-miR-3144-3p] | 30 | -12.6 | -10.5 |
| ACUGUUGCUAAUAUGCAACUCU [hsa-miR-367-5p] | 102 | 4.48 | -5.32 |
| AGCCCCCUGGCCCCAAACCC [hsa-miR-4313] | 38.7 | 6.68 | -4.86 |
| UACAAGUCAGGAGCUGAAGCAG [hsa-miR-6882-5p] | 45.8 | 1.17 | -8.28 |
| AAAAGUAAUUGCGGUUUUUGCC [hsa-miR-548am-5p] | 139 | 39.6 | -17.6 |
| AACCAGCACCCCAACUUUGGAC [hsa-miR-634] | 4.33 | -57.2 | -35.9 |
| CAGGGAGGCGCUCACUCUCUGCU [hsa-miR-4756-5p] | 158 | 41 | -3.87 |
| CAGUGCCUCGGCAGUGCAGCCC [hsa-miR-33b-3p] | 107 | 24.5 | -17.8 |
| UGGGGAGGUGUGGAGUCAGCAU [hsa-miR-6825-5p] | 22.4 | 1.61 | 37.7 |
| UAGCGGGGAUUCCAAUAUUGG [hsa-miR-4781-5p] | 24.3 | -29.7 | 46.5 |
| UAAUUUUAUGUAUAAGCUAGU [hsa-miR-590-3p] | 121 | 34.3 | -23.9 |
| UAAGUGCUUCCAUGUUUGAGUGU [hsa-miR-302d-3p] | 68 | 63.5 | -16.6 |
| CAAAGCGCUCCCCUUUAGAGGU [hsa-miR-518b] | 27.8 | -39.6 | 61.9 |
| UUGCUCCUGACUCUGUGCCCACA [hsa-miR-6772-3p] | 32.5 | -4.99 | 1.77 |
| AAGCCUGCCCGGCUCCUCGGG [hsa-miR-596] | 74.8 | -11.4 | -4 |
| AGACUGACGGCUGGAGGCCCAU [hsa-miR-4513] | 43.7 | 21.1 | -13.8 |
| AGUGGGGAACCCUUCCAUGAGG [hsa-miR-491-5p] | 10.1 | -46.6 | 47.1 |
| AUCGCUGCGGUUGCGAGCGCUGU [hsa-miR-639] | 129 | 61.4 | -17.2 |
| GUUUCACCAUGUUGGUCAGGC [hsa-miR-5096] | 49 | -17.6 | 21.9 |
| UCCUGCGUAGGAUCUGAGGAGU [hsa-miR-3193] | 58.9 | 10.1 | -18.1 |
| AAUGUGGACUGGUGUGACCAAA [hsa-miR-4491] | 45.4 | 20.6 | -0.704 |
